In US20090104207A1 (published 2009):
*: point of attachment. Biotin = O=C1N[C@H]2[C@H](CS[C@H]2CCCCC(=O)*)N1

Columns and labels:
[1] = biological target: HCV E1 envelope glycoprotein, genotype 1a strain H77, on retroviral pseudoparticles (hepatitis C virus genotype 1a strain H77, UniProt P27958 192-383); assay: cell-based or functional assay
[2] = biological target: HCV E1 envelope glycoprotein, genotype 2a isolate JFH1, on retroviral pseudoparticles (hepatitis C virus genotype 2a, UniProt Q99IB8 192-383); assay: cell-based or functional assay
[3] = biological target: HCV E1 envelope glycoprotein, genotype 4a isolate UKN4a, on retroviral pseudoparticles (hepatitis C virus genotype 4a); assay: cell-based or functional assay
[4] = biological target: T1, IGP 2137 (hepatitis C virus); assay: peptide ELISA (fine-mapping)
T1 construct: also called RMAWDM

[5] = biological target: T2, IGP 2254 (hepatitis C virus, SMILES …); assay: BIAcore, antibody immobilized, peptide in solution
T2 peptide: Biotin-GGITGHRMAWDMMMNWS-NH2

[6] = biological target: IGP 3472 (hepatitis C virus); assay: ELISA: biotinylated peptide on streptavidin-coated plate, serial dilution of 5D2; EC50 from Prism, shown as difference in log EC50 versus IGP 2254
[7] = biological target: T3, IGP 2138 (hepatitis C virus); assay: ELISA, biotinylated peptide on streptavidin plates (FIG. 9)
T3 construct: also called WDMMMNW

[8] = biological target: IGP 2241 (hepatitis C virus); assay: as above
[9] = biological target: IGP 2242 (hepatitis C virus); assay: as above

HCV E1 envelope glycoprotein, genotype 1a strain H77, on retroviral pseudoparticles, sequence (P27958 192-383 limits assumed): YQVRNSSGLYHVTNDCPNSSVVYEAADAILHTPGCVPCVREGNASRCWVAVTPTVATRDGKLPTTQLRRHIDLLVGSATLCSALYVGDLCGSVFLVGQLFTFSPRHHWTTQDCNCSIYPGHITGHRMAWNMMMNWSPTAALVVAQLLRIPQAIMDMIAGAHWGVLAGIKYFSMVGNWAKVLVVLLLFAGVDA
HCV E1 envelope glycoprotein, genotype 2a isolate JFH1, on retroviral pseudoparticles, sequence (Q99IB8 192-383 limits assumed): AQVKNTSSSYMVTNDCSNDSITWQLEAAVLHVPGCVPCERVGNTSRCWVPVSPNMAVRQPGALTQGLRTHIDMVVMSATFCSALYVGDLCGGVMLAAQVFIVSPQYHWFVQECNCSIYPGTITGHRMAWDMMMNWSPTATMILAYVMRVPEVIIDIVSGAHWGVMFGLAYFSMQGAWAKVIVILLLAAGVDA

B1: 5D2 (antibody, V domains shown)
VH: QVQLVESGGGVVQPGRSLRLSCVASGFTFSHYAMHWIRQAPGKGLEWVAVVSYDGSNKFYVDSVKGRFTISRDNSKNTVYLQMNSLRAVDTAVYYCARDPGVVTGSWSDSDGPPIHWGQGTLVTVSS
VL: DIVVTQSPDSLAVSLGERATITCKSSQSVFYSSNNKNYLGWYQQKPGQPPKLLIYWASTRASGVPDRFSGSGSGTDFTLTISSLQAEDVAVYYCQQYYTSWAFGQGTKVEIKR
notes: also called 5D2H9; IGH 534
[1]
  lowest concentration of antibody exhibiting at least 50% neutralization of HCVpp versus control: 25 µg/mL
[2]
  lowest concentration of antibody exhibiting at least 50% neutralization of HCVpp versus control: 6.2 µg/mL
[3]
  lowest concentration of antibody exhibiting at least 50% neutralization of HCVpp versus control: > 25 µg/mL
[4]
  binding result: no binding
[5]
  Kd: 0.06 nM
  koff: 9.46e-05 s⁻¹
  kon: 1.71e+06 M⁻¹ s⁻¹
[6]
  binding result: no binding
[7]
  binding result: no binding
[8]
  binding result: no binding
[9]
  binding result: binds
